Holding throughout (experiment): protein array
Test [1] concerns the target T1, homeobox and leucine zipper encoding (human, UniProt Q8IX15 25-550).
T1 construct: on protein array; also called HOMEZ
T1 sequence: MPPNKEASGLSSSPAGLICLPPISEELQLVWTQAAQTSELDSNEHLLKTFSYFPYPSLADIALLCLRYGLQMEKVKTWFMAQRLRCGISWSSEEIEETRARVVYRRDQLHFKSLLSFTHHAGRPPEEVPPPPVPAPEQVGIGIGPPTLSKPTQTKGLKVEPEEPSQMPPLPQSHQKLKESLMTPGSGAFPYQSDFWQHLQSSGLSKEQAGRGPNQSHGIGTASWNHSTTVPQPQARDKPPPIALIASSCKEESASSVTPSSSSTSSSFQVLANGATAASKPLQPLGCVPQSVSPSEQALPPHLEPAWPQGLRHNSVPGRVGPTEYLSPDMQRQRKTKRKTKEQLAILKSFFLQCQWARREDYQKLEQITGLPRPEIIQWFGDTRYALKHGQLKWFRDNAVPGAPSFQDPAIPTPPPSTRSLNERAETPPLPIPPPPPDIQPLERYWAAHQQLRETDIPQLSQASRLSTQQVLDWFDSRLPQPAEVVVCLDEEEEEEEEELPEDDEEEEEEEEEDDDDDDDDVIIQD

Test [2] deals with T2, BAR/IMD domain containing adaptor protein 2, transcript variant 3 (human, UniProt Q9UQB8 1-511).
T2 construct: on protein array; also called BAIAP2
T2 sequence: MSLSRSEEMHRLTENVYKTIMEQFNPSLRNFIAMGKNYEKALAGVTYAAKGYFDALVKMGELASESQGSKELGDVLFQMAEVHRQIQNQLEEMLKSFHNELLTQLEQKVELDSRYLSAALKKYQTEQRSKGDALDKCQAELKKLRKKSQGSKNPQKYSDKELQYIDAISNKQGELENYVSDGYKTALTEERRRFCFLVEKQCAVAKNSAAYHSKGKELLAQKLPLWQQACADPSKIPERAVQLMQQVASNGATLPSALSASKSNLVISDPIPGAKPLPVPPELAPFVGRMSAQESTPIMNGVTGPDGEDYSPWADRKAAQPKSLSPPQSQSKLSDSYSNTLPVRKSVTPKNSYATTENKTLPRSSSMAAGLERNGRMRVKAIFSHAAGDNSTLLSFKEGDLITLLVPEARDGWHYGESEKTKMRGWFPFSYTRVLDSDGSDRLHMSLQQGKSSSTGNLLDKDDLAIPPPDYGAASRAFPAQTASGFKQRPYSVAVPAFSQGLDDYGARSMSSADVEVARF

The target in test [3] is T3, leucine rich repeat containing 28, transcript variant 1 (human, UniProt Q86X40 1-367).
T3 construct: on protein array; also called LRRC28

Test [4] has as its target T4, growth factor receptor bound protein 2, transcript variant 1 (human, UniProt P62993 1-217).
T4 construct: on protein array; also called GRB2

For test [5], the target named is T5, Atpase secretory pathway ca2+ transporting 1 (human, UniProt P98194 1-909).
T5 construct: on protein array; also called ATP2C1
T5 sequence: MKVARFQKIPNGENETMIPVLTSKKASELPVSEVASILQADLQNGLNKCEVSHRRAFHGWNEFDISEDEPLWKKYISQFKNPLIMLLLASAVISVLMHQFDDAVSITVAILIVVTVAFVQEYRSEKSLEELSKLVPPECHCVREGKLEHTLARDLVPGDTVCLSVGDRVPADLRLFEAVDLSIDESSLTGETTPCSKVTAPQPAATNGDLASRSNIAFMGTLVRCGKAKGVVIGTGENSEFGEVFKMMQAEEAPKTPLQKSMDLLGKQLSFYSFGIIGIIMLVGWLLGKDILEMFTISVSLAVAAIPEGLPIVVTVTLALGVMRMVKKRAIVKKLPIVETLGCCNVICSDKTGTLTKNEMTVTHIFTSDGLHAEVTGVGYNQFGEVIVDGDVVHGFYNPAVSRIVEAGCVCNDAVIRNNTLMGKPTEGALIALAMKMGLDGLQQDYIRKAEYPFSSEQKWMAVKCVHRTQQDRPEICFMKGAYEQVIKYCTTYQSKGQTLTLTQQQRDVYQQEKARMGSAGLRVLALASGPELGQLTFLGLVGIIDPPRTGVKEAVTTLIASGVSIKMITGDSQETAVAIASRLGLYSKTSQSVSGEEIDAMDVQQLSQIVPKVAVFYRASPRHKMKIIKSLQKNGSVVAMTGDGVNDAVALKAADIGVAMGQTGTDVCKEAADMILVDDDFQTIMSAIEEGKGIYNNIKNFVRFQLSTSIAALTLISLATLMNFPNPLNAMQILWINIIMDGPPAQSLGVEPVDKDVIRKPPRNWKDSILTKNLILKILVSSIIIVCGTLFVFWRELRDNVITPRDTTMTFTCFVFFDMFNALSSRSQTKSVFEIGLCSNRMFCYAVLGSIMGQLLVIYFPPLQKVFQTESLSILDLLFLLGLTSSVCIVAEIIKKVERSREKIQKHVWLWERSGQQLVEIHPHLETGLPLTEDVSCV

For test [6], the target named is T6, teashirt zinc finger homeobox 2, transcript variant 1 (human, UniProt Q9NRE2 1-1034).
T6 construct: on protein array; also called TSHZ2
T6 sequence: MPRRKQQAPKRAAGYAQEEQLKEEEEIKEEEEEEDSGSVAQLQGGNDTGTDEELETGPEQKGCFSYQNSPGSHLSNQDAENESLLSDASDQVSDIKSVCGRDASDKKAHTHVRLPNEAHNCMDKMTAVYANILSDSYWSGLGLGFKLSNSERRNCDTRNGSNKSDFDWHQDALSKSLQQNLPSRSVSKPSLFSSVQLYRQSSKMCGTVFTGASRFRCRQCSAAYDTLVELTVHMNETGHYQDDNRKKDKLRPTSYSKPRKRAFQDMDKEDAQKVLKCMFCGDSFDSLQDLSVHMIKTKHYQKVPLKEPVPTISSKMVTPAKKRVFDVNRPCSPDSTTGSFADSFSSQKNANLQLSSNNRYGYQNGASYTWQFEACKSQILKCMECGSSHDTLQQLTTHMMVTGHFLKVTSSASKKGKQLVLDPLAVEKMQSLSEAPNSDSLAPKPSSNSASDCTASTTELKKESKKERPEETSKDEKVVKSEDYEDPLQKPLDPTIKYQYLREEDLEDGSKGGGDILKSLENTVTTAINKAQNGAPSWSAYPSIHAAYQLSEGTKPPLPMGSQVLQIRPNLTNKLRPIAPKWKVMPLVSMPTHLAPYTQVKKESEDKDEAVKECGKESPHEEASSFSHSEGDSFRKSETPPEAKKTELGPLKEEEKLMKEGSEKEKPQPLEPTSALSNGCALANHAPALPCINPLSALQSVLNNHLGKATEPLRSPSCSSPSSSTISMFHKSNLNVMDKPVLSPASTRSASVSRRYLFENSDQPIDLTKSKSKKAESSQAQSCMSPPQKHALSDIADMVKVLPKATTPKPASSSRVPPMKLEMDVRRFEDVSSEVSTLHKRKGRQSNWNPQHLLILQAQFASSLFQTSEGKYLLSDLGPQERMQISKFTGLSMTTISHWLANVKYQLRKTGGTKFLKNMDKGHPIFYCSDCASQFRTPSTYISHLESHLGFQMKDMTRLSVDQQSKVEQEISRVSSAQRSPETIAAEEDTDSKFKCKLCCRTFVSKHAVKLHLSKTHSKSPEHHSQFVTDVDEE

These results are taken from patent publication US20220204643A1 (published 2022).

T3 sequence (Q86X40 whole entry, change not shown): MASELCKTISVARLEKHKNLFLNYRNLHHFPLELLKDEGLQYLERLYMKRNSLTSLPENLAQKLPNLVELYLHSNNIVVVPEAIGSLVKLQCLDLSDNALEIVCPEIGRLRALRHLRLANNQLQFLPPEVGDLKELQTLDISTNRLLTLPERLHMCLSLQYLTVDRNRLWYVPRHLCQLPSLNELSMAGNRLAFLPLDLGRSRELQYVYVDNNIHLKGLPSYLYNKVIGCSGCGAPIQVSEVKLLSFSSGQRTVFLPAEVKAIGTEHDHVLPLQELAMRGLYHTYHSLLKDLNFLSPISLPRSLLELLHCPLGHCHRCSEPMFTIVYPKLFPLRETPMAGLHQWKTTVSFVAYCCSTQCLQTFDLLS

B1: TCOL1006 (antibody, V domains shown)
VH: EVQLVESGGGLVQPGGSLRLSCAASGFPPRSFAMSWVRQAPGKGLEWVSSISGLGNSIYYAESVKGRFITSRDNSKSTVFLLMNSLRAEDTAVYYCAKSAFGGVPDGFDIWGQGTMVTVSS
VL: QSVVTQPPSASGPPGQTVTISCSGGRSNVASHAVHWYQHLPGTAPKLLIYNDHQRPSGVPDRFSGSKSGPSASLAISGLRSEDEADYYCATWDDSLGGRVVFGGGTKLTVLG
notes: VH/VL only
For the molecule B1, the binding result in test [1] and in test [2] was “binds” each time.

B2: TESO1003 (antibody, V domains shown)
VH: QVQLVESGGGVVQPGRSLRLSCAASGFTFSNYDMHWVRQAPGKGLEWVTVVSYDGTNKYYAESVQGRFTISRDNSKNTLYLQMNSLRTEDTAVYYCAKEGGWGNTVTTSYYYYGMDVWGQGTTVTVSS
VL: QIVLTQSPATLSLSPGERATLSCRASQSVSNYLAWYQQKPGQAPRLLIYDASNRATGIPARFSGSGSGTDFTLTISSLEPEDFAVYYCQQRSNWPPYTFGQGTKLDIKR
notes: VH/VL only
On to B2, for which the binding result in test [3] is on record as “binds”.

B3: TCOL1009 (antibody, V domains shown)
VH: PVQLVQSGAEVKKPGASVKVSCKASGDTFPNYVISWVRQAPGQGLEWVGCINTNNGKTNYVQKLQGRVILTTDTSTNTANMELRSLRFDDTAVYYCARERGQVRSYGMDVWGQGTAVTVSS
VL: PYELTQPPSVSVSPGQTANITCSGDKLGDICVCWYQQKPGQSPVLVIYQHNKRPSGIPERFSGSNSGNTATLTISATQATDEAIYYCQSWDSSSVLFGGGTKLTVLG
notes: VH/VL only
On to B3, for which, in test [4], the binding result is “binds”.

B4: TESO1006 (antibody, V domains shown)
VH: QLHLQESGPGLVKPSETLSLTCTVSGGSVSSSSYYWGWVRQPPGKGLEWIGHVYYSGRTYYNPSLKSRATISLDTSKNQFSLKLSSLTATDTAVYYCATIVAAYSYGFEFDPWGQGILVIVSS
VL: QSVLTQPPSVSAAPGQKVTISCSGGSSNIGNNYVSWYQQLPGTAPKLIIYDNDKRPAGIPDRFSGSKSGSSATLGITGLQNGDEAEYYCGTWDSSLGGGVFGGGTKVTVLG
notes: VH/VL only
Take B4: the binding result in test [5] and in test [6] was “binds” each time.
